# Data: the supplement of paper PMC12042874
# ± gives the uncertainty stated by the source.
# Assay: amyloid nucleation score (Sup35N fusion, yeast selection) (log enrichment); library NNK3; higher = more nucleation; inactive = no reads after selection
# Method in brief: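 The nucleation score is the DiMSum log enrichment of output over input reads, centred on the mode score of non-aggregating sequences. Only sequences with 100 or more input reads were scored, using Illumina sequencing of input and output plasmid inserts. Psi-negative yeast expressing Sup35N fused to peptides of 20 random codons were induced 24 hours with 100 μM copper sulfate and grown 7 days at 30°C on medium lacking adenine and uracil.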
row,Substance,amyloid nucleation score
1,RLYLNSFSHQNSCPRDLDGL,0.969 ± 0.1
2,RMCKTATVIHYGLFINLTEF,inactive
3,RMEKIRTKVNSVTDSSWKSR,inactive
4,RMFVSIRLLGTCCSDWSYYE,1.78 ± 0.085
5,RMGHVFMYDYHIV,inactive
6,RMGIASIYAIVLQPMIRLWL,inactive
7,RMLMIMVACVGTYDSSN,inactive
8,RMPYKMQFFCNLWLSVYSTL,inactive
9,RMRDRSGMGRTFHHGTQTTV,inactive
10,RMSVSSFRVVWSTIAYTKST,inactive
11,RMWLD,inactive
12,RNCNETLNIVETGNSISANV,inactive
13,RNGLSIGVNVGHLT,inactive
14,RNIRYLTLYQVTYLGRRRT,2.25 ± 0.093
15,RNSIMSSDWSHSGYGS,inactive
16,RNSTMIYTQ,2.24 ± 0.093
17,RNYNYFINCVHWLYLVSWGL,0.605 ± 0.45
18,RPFNRTYHILLYQMHYVRST,inactive
19,RPFSPVVLMVYGKKRRTWTR,inactive
20,RPGTCNLLVDGHLSWFQSAT,-0.288 ± 1
21,RPMDDKWLIGLFARNERDVP,inactive
22,RPRLYFLTSNLKTQCAVHNA,inactive
23,RPRMPVRLWWYTKLGYFKDR,inactive
24,RPSSVDRLGSRDIRG,-0.413 ± 1.9
25,RPTGYQVTYEMRRSGG,inactive
26,RPVSGTNFINAN,inactive
27,RPVSTSYVRLRRVRFSYNLN,inactive

row,Substance,amyloid nucleation score
1,RQDLSHSFSDGRERQHWAKR,-0.165 ± 0.81
2,RQLVNCQGFVLYTREMDFEA,inactive
3,RQWQGNFSSVGFLEIKDALF,inactive
4,RQYWCFYQSWNSLG,inactive
5,RRAGNKWYVR,inactive
6,RRALYKLSSKESWPVDCNSV,inactive
7,RRFKYIGLRGTMHRLNYFGL,inactive
8,RRGNDRKRLWAVNLDTGNFL,inactive
9,RRRERGASNVDELWF,inactive
10,RRRLG,inactive
11,RRRLIR,inactive
12,RRSRFTFSYIIRSLCASRTF,inactive
13,RRSTYLIVFVG,inactive
14,RRTPLWSPMVRNLSYALLAG,inactive
15,RRVTFGGMAHSERKRYCLFT,inactive
16,RRYIRSVNCKQWDYKFLMYS,inactive
17,RSALRVM,inactive
18,RSANLICLSPLSIIIRDKTL,inactive
19,RSAPCC,inactive
20,RSAVISTLRYSW,-0.289 ± 0.41
21,RSDLCFC,inactive
22,RSDSWLIYSSPINMM,inactive
23,RSFVVNYWGFSDMLHFCRLC,inactive
24,RSGFAKMNAILLYFASFLL,inactive
25,RSGSLIGAVYRNMVVLNRMG,inactive
26,RSHGVLNLILCSPFLSDTGQ,2.78 ± 0.074
27,RSKEMNVKASKNSMVHVSEV,inactive

row,Substance,amyloid nucleation score
1,RSLCQQYQRFSSLRKVIGLS,inactive
2,RSLDD,inactive
3,RSLTLW,inactive
4,RSLYWIWWDDSKSNE,inactive
5,RSMIWRKCF,inactive
6,RSMYR,inactive
7,RSNICQFLKDFYKRCRKLF,inactive
8,RSNVVAQMYQKMLLSRYCTI,0.354 ± 0.27
9,RSNYRGYFK,-0.498 ± 1.4
10,RSPRFLRELVLGCSNCWFCG,inactive
11,RSQRKTFHWKFWRPSCSDQW,0.868 ± 0.12
12,RSQSVQKIEATLSLLIGAPK,inactive
13,RSTAPGTGSDIPFEDSLRQM,inactive
14,RSTDTFWACCSDKTLSLWSA,inactive
15,RSTTTMEYWFSCAVYSPKSV,0.682 ± 0.12
16,RSTWFSFFRRTAHWKKALRP,inactive
17,RSVSDYSSNCRAHCLVDDDT,inactive
18,RSVVVLT,inactive
19,RTAMVVDSYAKSFMSQASVL,inactive
20,RTECYVYKYDALDSRLGYCD,-0.18 ± 0.62
21,RTFPLTLRSSHSPFKPLMFL,inactive
22,RTHRRKSDTVMLES,inactive
23,RTLCRLWTLCCRCRSYALFR,inactive
24,RTMLTQFPCYWVSIHSVLVS,inactive
25,RTNILVGRIR,inactive
